According to article PMC8139589, “A flexible multiplexed immunosensor for point-of-care in situ wound monitoring”:

Legend:
TNF-alpha = TNF-alpha (human, UniProt P01375 77-233); assay: electrochemical aptasensor (SWV); serum; 0-2 ng/ml; Serum as wound-exudate mimic; about 30 min incubation to equilibrium; aptamers immobilized at 10 uM in TE buffer, MCH passivation; assay pH and temperature not; settings: protein: commercial; chain copies: 3; label: 5' methylene blue; 3' C3 thiol; hairpin
IL-8 = IL-8 (human, UniProt P10145 28-99); assay: electrochemical aptasensor (SWV); serum; 0-30 ng/ml; Serum as wound-exudate mimic; about 30 min incubation to equilibrium; aptamers immobilized at 10 uM in TE buffer, MCH passivation; assay pH and temperature not; settings: protein: commercial; label: 5' C6 thiol; 3' methylene blue; hairpin
Sequence of IL-8 (P10145 28-99): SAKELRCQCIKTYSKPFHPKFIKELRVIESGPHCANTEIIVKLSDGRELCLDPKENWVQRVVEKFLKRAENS

IL-6 = IL-6 (human, UniProt P05231 30-212); assay: as above; settings: protein: commercial; label: 5' C6 thiol; 3' methylene blue; hairpin
Sequence of IL-6 (P05231 30-212): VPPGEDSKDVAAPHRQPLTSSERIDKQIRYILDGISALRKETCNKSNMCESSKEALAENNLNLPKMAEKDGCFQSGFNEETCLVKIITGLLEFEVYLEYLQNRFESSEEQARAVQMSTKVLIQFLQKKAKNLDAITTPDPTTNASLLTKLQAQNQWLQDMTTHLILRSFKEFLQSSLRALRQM

Sequence of TNF-alpha (P01375 77-233): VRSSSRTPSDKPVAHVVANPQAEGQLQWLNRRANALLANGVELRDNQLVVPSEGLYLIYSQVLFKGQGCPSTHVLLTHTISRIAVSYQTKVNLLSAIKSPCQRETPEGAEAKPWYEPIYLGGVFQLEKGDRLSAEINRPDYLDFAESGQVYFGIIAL

GGAGUAUCUGAUGACAAUUCGGAGCUCC (structured_RNA, phosphorothioate at all linkages) [TNF-alpha aptamer]: binds (TNF-alpha).

GGGGGCUUAUCAUUCCAUUUAGUGUUAUGAUAACC (structured_RNA, none printed (ribo)) [IL-8 aptamer]: binds (IL-8).

GGTGGCAGGAGGACTATTTATTTGCTTTTCT (structured_DNA) [IL-6 aptamer]: binds (IL-6).
